Laboratory results: patent publication US20070298499, “Methods and compositions for regulating gene expression in plant cells” (published 2007)

Tests used:
[1] = biological target: T1, RF2b (expressed in BY-2 protoplasts) (UniProt Q6S4P4); experiment: cell_activity; conditions: GUS reporter in BY-2 protoplasts
T1 sequence: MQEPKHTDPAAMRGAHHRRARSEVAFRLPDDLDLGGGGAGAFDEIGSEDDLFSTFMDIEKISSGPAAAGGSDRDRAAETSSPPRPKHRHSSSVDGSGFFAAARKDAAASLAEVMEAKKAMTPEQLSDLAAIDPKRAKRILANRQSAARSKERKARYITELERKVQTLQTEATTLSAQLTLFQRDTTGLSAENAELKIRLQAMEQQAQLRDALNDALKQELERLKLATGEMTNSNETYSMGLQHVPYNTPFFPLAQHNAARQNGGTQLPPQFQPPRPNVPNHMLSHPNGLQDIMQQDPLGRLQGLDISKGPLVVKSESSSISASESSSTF

[2] = biological target: T2, RF2b (UniProt Q6S4P4 SEQ:1-329); experiment: SPR; value only in figure; lower affinity than RF2a; conditions: chain copies: 2 (inferred, bZIP dimer), label: biotin (SPR)
T2 chain: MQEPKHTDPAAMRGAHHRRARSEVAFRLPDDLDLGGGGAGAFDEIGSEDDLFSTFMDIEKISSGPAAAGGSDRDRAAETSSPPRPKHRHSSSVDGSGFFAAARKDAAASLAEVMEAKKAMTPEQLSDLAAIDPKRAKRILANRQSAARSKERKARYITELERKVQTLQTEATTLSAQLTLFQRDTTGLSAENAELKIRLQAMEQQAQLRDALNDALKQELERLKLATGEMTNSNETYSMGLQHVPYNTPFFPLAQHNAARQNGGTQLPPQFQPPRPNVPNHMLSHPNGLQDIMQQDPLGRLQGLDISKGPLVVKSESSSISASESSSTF
Experimental: (§1) To compare the binding affinities of RF2a and RF2b with the Box II element and its mutants, real time Surface Plasmon Resonance (“SPR”) measurements were conducted using a BIAcore 2000 instrument. The binding affinities of RF2a and RF2b to these DNA targets were measured on chips on which biotin labeled-Box II, -Box IIm1 and -Box IIm2 elements were immobilized.
(§2) The association and de-association constants were determined using BIAevaluation 3.1 software—using 1:1 binding with a mass transfer model. In general, RF2a has relatively higher binding affinities to the Box II, Box IIm1 and Box IIm2 elements when compared to RF2b. Furthermore, the DNA binding behavior of RF2a and RF2b are quite different from each other. RF2a appears to bind rapidly to the DNA target and slowly dissociates from the target, while RF2b binds slowly to the DNA target and releases from the target relatively quickly. The differences in the affinity of RF2a to the Box II element and its mutants, however, are not as dramatic as the differences of RF2b, while the relative order of affinities to the different target elements is the same for both proteins (FIG. 8).

[3] = biological target: T3, RF2a-ΔP (proline-rich domain deleted) (UniProt Q69IL4 SEQ:1-320); experiment: EMSA; 100 ng protein, 5% acrylamide gel; conditions: tags: N-terminal His6 (pET28a); chain copies: 2 (inferred, bZIP dimer); label: biotin (SPR); 32P (EMSA)
T3 chain: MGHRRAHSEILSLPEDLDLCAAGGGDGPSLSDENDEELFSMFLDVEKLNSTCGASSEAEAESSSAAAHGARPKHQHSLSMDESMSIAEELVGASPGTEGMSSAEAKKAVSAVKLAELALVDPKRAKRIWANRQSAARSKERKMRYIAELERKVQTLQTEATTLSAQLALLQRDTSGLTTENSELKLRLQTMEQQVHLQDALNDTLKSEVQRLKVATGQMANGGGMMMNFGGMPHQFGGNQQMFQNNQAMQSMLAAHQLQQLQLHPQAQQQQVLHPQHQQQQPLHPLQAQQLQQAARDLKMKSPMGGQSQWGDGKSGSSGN
Experimental: (§3) The purified mutant proteins were then analyzed by SDS-PAGE to confirm that each protein was its expected size (FIG. 16(B)). To confirm that each of the mutant proteins bind to the DNA target, i.e., the Box II element and/or its operational derivatives, gel mobility shift assays were carried out with the purified recombinant proteins (FIG. 16(C)). The electrophoretic mobility shift assays were carried out essentially as described in Yin and Beachy (1995). 100 ng of proteins purified from the transformed E. coli were incubated with ³²P-labeled Box IIm1 DNA probe followed by electrophoresis in a 5% acrylamide gel (Yin et al., 1997) (FIG. 16(C)).

[4] = biological target: T4, RF2a-ΔPΔA (proline-rich and acidic domains deleted) (UniProt Q69IL4 SEQ:1-261); experiment: EMSA; 100 ng protein, 5% acrylamide gel; conditions: tags: N-terminal His6 (pET28a); chain copies: 2 (inferred, bZIP dimer); label: biotin (SPR); 32P (EMSA)
T4 chain: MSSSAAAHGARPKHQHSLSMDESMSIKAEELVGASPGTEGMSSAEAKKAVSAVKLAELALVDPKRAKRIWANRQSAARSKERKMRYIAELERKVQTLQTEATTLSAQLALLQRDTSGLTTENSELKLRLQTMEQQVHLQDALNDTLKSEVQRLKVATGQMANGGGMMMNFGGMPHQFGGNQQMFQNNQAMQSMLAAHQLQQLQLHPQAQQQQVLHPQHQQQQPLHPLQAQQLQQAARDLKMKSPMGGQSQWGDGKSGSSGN
Experimental: as §3

[5] = biological target: T5, RF2a-ΔPΔQ (proline- and glutamine-rich domains deleted) (UniProt Q69IL4 SEQ:1-236); experiment: EMSA; 100 ng protein, 5% acrylamide gel; conditions: tags: N-terminal His6 (pET28a); chain copies: 2 (inferred, bZIP dimer); label: biotin (SPR); 32P (EMSA)
T5 chain: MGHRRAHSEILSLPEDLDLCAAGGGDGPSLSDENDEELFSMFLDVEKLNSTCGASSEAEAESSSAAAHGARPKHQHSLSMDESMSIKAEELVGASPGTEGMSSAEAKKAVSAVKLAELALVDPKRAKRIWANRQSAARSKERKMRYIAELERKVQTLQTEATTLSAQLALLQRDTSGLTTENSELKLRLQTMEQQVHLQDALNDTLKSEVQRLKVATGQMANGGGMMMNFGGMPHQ
Experimental: as §3

[6] = biological target: T6, RF2a-ΔQ (glutamine-rich domain deleted) (UniProt Q69IL4 SEQ:1-283); experiment: EMSA; 100 ng protein, 5% acrylamide gel; conditions: tags: N-terminal His6 (pET28a); chain copies: 2 (inferred, bZIP dimer); label: biotin (SPR); 32P (EMSA)
T6 chain: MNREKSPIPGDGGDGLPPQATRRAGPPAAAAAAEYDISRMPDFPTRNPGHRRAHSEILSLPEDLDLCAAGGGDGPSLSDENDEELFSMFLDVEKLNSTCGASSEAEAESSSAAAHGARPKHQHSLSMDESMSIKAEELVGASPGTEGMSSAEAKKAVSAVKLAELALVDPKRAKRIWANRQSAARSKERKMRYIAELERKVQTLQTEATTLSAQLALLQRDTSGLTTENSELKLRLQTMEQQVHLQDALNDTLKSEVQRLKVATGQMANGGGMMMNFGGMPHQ
Experimental: as §3

[7] = biological target: T2, RF2b; experiment: SPR; value only in figure; lower affinity than RF2a; slow on, relatively fast off; conditions: chain copies: 2 (inferred, bZIP dimer); label: biotin (SPR)
Experimental: as §1, §2

ACGAATCAATAAAGAAGGACCAGAAGATATAAAGCTGGAACATCTTCACATGCTACCACATGGCTAGCATCTTTACTTTAGCATCTCTATTATTGTAAGAGTGTATAATGAGGAGTGTGCCCCTTCACTCCAGTATATAAGGAGCACCAGAGTAGTGTAATAGATCATCGATCAAGCAAGCGAGAGCTCAAACTTCTAAGAGAGCAAGA (double strand) [E fragment with Box IIm2]
activity (fold activation) [1]: 5.8

ACGAATCAATAAAGAAGGACCAGAAGATATAAAGCTGGAACATCTTCACATGCTACCACATGGCTAGCATCTTTACTTTAGCATCTCTATTATTGTAAGAGTGTATAATGACCAGTGTGGCGCTGGACTCCAGTATATAAGGAGCACCAGAGTAGTGTAATAGATCATCGATCAAGCAAGCGAGAGCTCAAACTTCTAAGAGAGCAAGA (double strand) [E fragment with Box IIm1]
activity (fold activation) [1]: 7

B1: Box IIm2 (dsDNA)
DNA 1: GGAGTGTGCCCCTTC
DNA 2: GAAGGGGCACACTCC
binding result [2]: binds

B2: Box IIm1 (dsDNA)
DNA 1: CCAGTGTGGCGCTGG
DNA 2: CCAGCGCCACACTGG
binding result [3]: binds
binding result [4]: binds
binding result [5]: binds
binding result [6]: binds
binding result ([2]; 32P (EMSA)): binds

B3: Box II (dsDNA)
DNA 1: CCAGTGTGCCCCTGG
DNA 2: CCAGGGGCACACTGG
binding result [7]: binds
